Measured values taken from article PMC3272839.

Target: LRP1 minireceptor of domain IV, mLRP4 (UniProt Q07954)
Assay: flow cytometry on cells

UniProt Q07954, sequence (Q07954 20-4544): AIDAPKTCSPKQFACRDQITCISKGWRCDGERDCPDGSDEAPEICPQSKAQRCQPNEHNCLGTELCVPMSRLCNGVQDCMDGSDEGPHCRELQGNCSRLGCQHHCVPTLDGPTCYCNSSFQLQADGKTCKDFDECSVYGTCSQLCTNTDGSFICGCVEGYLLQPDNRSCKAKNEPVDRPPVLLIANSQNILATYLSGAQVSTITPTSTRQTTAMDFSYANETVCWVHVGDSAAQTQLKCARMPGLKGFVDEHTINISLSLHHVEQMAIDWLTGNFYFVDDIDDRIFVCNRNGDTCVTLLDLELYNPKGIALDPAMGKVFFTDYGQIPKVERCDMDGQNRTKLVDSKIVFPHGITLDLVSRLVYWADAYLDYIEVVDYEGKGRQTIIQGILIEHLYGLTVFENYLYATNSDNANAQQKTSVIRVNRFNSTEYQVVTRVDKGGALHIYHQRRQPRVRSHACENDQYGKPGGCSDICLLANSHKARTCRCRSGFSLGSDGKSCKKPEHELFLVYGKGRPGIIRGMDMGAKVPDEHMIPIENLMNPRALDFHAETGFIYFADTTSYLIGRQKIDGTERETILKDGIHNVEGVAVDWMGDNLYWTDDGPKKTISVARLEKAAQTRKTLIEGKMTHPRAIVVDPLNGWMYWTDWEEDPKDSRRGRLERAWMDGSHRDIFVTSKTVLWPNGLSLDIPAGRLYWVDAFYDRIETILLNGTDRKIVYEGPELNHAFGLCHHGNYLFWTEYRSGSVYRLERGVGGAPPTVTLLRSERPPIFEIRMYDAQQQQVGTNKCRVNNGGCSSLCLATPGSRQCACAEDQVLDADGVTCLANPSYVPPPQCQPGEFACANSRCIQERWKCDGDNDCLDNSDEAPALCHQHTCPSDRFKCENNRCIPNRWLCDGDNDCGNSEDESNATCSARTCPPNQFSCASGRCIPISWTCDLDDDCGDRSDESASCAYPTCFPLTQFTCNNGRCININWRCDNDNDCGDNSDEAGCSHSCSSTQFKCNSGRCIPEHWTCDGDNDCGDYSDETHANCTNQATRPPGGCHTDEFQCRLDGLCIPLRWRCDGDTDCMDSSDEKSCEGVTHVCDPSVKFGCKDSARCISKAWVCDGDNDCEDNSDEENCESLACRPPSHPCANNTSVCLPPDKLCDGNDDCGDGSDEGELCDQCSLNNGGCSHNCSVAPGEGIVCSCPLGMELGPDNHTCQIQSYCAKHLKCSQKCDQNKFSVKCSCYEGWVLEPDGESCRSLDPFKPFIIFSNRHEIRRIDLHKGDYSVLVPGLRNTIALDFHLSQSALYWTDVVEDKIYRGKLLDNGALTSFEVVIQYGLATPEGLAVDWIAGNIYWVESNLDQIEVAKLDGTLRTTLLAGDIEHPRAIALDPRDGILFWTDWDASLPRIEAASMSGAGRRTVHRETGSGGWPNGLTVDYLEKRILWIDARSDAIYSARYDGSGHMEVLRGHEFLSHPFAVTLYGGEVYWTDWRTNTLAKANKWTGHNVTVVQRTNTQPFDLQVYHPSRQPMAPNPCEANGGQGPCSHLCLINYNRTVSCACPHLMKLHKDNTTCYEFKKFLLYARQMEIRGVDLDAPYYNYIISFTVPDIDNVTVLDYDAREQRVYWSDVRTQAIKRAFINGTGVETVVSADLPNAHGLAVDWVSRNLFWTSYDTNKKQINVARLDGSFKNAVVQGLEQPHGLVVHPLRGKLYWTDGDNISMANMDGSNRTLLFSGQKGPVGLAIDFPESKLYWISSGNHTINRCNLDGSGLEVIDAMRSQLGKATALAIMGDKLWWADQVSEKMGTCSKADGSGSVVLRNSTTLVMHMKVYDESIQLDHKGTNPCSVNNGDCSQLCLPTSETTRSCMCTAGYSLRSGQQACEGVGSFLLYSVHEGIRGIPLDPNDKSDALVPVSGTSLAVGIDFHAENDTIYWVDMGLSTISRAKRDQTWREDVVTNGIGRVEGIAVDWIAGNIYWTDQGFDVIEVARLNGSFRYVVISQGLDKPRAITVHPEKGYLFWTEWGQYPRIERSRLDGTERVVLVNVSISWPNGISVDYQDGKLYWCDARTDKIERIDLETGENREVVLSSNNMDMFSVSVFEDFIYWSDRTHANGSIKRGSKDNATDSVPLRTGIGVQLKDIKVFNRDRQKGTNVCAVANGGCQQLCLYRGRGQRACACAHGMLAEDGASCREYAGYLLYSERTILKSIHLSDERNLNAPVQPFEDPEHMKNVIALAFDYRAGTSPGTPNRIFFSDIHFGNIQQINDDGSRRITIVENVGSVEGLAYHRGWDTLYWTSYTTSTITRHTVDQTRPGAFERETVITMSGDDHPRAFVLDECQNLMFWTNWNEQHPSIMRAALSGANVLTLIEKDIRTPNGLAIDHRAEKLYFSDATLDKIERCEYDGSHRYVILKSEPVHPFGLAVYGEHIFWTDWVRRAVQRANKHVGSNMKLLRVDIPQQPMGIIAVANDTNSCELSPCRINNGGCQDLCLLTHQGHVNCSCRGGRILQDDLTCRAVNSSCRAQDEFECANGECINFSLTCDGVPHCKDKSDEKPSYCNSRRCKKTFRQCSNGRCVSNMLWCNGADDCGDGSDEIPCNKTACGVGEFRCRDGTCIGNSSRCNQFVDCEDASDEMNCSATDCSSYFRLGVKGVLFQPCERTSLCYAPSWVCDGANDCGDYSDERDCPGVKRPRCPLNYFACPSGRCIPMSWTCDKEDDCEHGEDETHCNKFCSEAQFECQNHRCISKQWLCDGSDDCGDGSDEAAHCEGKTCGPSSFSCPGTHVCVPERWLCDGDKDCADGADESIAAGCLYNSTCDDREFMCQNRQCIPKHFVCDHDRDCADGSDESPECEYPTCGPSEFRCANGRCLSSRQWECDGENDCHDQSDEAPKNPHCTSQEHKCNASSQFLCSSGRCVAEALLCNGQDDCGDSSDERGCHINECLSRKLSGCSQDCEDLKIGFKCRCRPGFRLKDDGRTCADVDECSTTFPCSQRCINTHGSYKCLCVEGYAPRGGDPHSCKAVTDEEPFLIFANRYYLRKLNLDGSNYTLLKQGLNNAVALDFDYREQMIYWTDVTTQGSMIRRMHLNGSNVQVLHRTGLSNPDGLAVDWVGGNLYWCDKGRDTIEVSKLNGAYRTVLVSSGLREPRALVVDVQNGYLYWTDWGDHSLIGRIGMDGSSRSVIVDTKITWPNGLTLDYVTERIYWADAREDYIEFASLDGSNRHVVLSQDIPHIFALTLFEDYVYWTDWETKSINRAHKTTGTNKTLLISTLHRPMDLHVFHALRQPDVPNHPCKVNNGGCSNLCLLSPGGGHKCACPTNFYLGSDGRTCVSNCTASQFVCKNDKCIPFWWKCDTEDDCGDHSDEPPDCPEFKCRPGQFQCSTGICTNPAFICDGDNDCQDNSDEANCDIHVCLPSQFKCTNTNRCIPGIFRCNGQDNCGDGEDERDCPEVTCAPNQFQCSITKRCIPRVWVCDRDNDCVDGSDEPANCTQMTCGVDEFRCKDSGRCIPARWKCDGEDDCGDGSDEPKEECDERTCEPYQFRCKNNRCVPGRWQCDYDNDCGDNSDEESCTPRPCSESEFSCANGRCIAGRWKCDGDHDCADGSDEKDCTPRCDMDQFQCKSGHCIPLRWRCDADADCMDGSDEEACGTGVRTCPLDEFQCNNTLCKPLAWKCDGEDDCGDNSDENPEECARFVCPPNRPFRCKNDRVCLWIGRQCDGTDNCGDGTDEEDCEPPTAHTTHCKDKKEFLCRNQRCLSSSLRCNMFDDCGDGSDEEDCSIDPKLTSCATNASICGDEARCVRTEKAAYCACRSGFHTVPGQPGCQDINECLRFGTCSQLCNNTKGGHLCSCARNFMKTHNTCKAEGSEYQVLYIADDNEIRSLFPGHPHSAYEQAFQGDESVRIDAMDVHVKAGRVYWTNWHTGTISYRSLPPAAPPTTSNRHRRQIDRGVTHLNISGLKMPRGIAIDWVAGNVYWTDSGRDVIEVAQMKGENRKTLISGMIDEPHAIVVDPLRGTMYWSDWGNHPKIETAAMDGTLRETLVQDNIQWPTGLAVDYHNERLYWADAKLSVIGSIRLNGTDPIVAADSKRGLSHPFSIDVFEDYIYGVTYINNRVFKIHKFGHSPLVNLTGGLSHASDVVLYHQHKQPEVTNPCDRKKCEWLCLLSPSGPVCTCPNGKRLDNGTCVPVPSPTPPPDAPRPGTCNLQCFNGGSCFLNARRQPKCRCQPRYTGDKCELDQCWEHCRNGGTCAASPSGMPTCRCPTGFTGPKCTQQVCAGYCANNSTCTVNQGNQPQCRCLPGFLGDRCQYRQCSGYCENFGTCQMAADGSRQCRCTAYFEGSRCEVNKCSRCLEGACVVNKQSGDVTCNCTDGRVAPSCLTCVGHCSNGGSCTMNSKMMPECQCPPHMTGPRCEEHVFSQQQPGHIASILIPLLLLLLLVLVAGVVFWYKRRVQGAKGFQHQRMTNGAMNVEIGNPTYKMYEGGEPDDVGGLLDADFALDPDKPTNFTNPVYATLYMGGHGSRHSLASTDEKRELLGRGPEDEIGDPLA

Alexa488-labeled receptor-associated protein (RAP) (from UniProt P30533 35-357) (ligand)
fold RAP binding against N2a-pcDNA3 cells (fold of N2a-pcDNA3 cells): 2.2
